Assay results as given in PMC4664405.

Molecular target: Flag-tagged PDI-WT (UniProt P07237)
Assay: co-IP; Flag-M2 affinity resin on COS-7 lysates (50 mM TrisHCl, 150 mM NaCl); PDI-Flag co-expressed with one sGC subunit or one α construct; Western blot, densitometry of bound over input

Sequence of Flag-tagged PDI-WT (P07237 18-508): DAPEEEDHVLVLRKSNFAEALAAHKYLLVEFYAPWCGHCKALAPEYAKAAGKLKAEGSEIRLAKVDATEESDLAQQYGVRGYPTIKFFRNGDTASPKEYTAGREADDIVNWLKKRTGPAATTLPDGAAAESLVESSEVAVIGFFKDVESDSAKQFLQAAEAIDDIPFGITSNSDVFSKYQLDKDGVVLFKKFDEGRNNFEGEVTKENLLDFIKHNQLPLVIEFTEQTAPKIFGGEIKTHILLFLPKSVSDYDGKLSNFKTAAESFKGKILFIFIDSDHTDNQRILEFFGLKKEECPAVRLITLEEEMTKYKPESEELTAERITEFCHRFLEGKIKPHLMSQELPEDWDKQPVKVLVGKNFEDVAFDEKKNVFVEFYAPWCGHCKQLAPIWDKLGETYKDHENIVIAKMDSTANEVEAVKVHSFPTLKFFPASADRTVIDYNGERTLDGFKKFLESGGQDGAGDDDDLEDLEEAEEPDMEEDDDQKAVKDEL

Row | bound vs. input (densitometry) | sGC bound over input (densitometry) | Substance
1 | 1.01 | 1.08 | sGC α WT, expressed in COS-7 cells (from UniProt Q02108 1-690) (enzyme)
2 | – | 0.74 | sGC β WT, expressed in COS-7 cells (from UniProt Q02153 1-619) (enzyme)
